Our source for the response values is publication PMC8013792, “Bacterial protein domains with a novel Ig‐like fold target human CEACAM receptors” (The EMBO Journal, 2021).

The chains are these.
B1: recombinant CEACAM1 N-terminal domain, unglycosylated, 6xHis tagged [human] / IgSF (IgI3) domain of β protein, recombinant, biotinylated [modified: biotin, C-terminal] [Streptococcus agalactiae (GBS)] (parent complex)
chain 1: MAQLTTESMPFNVAEGKEVLLLVHNLPQQLFGYSWYKGERVDGNRQIVGYAIGTQQATPGPANSGRETIYPNASLLIQNVTQNDTGFYTLQVIKSDLVNEEATGQFHVY
chain 2: ANENNQQKIELTVSPENITVYEGEDVKFTVTAKSDSKTTLDFSDLLTKYNPSVSDRISTNYKTNTDNHKIAEITIKNLKLNESQTVTLKAKDDSGNVVEKTFTITVQKKEEKQLPSTGGS
B2: IgSF (IgI3) domain of β protein, recombinant, biotinylated [modified: biotin, C-terminal] [Streptococcus agalactiae (GBS)] / recombinant CEACAM1 N-terminal domain, unglycosylated, 6xHis tagged [human] (parent complex)
chain 1: B1 chain 2
chain 2: B1 chain 1

Variants of B1 are the subject of one test. The test is described as follows: flow cytometry on coated dynabeads; parent: 390; read off a plot. For orientation: In flow cytometry, cells or beads pass a laser one at a time.
For chain 2 ANENNQQKIELTVSPENITVYEGEDVKFTVTAKSDSKTTLDASDLLTKYNPSVSDRISTNYKTNTDNHKIAEITIKNLKLNESQTVTLKAKDDSGNVVEKTFTITVQKKEEKQLPSTGGS [chain 2 F42A], the response is around 750 Geometric MFI. The same measure, in the same setting: the result for chain 2 ANENNQQKIELTVSPENITVYEGEDVKFTVTAKSDSKTTLDFSDLLTKYNPSVSARISTNYKTNTDNHKIAEITIKNLKLNESQTVTLKAKDDSGNVVEKTFTITVQKKEEKQLPSTGGS [chain 2 D55A] reads around 340 Geometric MFI. Still for that read-out and setting: the same measure for chain 2 ANENNQQKIELTVSPENITVYEGEDVKFTVTAKSDSKTTLDFSDLATKYNPSVSDRISTNYKTNTDNHKIAEITIKNLKLNESQTVTLKAKDDSGNVVEKTFTITVQKKEEKQLPSTGGS [chain 2 L46A]: around 200 Geometric MFI. Regarding chain 2 ANENNQQKIELTVSPENITVYEGEDVKFTVTAKSDSKTTLDFSDLLTKYNPSASDRISTNYKTNTDNHKIAEITIKNLKLNESQTVTLKAKDDSGNVVEKTFTITVQKKEEKQLPSTGGS [chain 2 V53A], the response was around 280 Geometric MFI.

Variants of B2 are the subject of another test. The test can be described thus: flow cytometry on coated dynabeads; parent: 800; read off a plot.
For the variant chain 2 MAQLTTESMPFNVAEGKEVLLLVHNLPQQLFGYSWYKGERVDGNRQIVGYAIGTQQATPGPANSGRETIYPNASLLIQNVTQNDTGFYTLAVIKSDLVNEEATGQFHVY [chain 2 Q91A], the response was around 230 Geometric MFI. With chain 2 MAQLTTESMPFNVAEGKEVLLLVHNLPQQLFGYSWYKGERVDGNRQIVGYAIGTQQATPGPANSGRETIYPNASLLIQNVTQNDTGFYTLQVIKSDAVNEEATGQFHVY [chain 2 L97A], the response was around 450 Geometric MFI.

chain 2 MAQLTTESMPFNVAEGKEVLLLVHNLPQQLFGYSWYKGERVDGNRQIVGYAIGTQQATPGPANSGRETIYPNASLLIQNVTQNDTGFYTLQVAKSDLVNEEATGQFHVY [chain 2 I93A]: the response was around 240 Geometric MFI.

As for chain 2 MAQLTTESMPFNVAEGKEVLLLVHNLPQQLFGYSWYKGERVDGNRQIVGYAIGTQQATPGPANSGRETIYPNASLLIQNVTQNDTGFYTLQVIKSDLANEEATGQFHVY [chain 2 V98A], the response is around 590 Geometric MFI. Regarding chain 2 MAQLTTESMPFNVAEGKEVLLLVHNLPQQLFGYSWYKGERVDGNRQIVGYAIGTQQATPGPANSGRETIYPNASLLIQNVTQNDTGFYTLQVIKSDLVAEEATGQFHVY [chain 2 N99A], the response was around 540 Geometric MFI. On the same count and under the same terms, the result for chain 2 MAQLTTESMPFNVAEGKEVLLLVHNLPQQLFGYSWYKGERVDGNRAIVGYAIGTQQATPGPANSGRETIYPNASLLIQNVTQNDTGFYTLQVIKSDLVNEEATGQFHVY [chain 2 Q46A] reads around 510 Geometric MFI; that for chain 2 MAQLTTESMPFNVAEGKEVLLLVHNLPQQLAGYSWYKGERVDGNRQIVGYAIGTQQATPGPANSGRETIYPNASLLIQNVTQNDTGFYTLQVIKSDLVNEEATGQFHVY [chain 2 F31A], around 390 Geometric MFI.
